# In publication doi:10.1101/2023.03.14.530545 (bioRxiv, 2023):
# Assays:
# [1] = target: CnTps1 ΔIDD (Cryptococcus neoformans var. grubii strain H99 | Candida albicans) (UniProt Q6IVK9); test: SEC
# cryo-EM structure = target: the molecule itself; test: cryo-EM structure
Molecule,stoichiometry N [1],stoichiometry N (cryo-EM structure)
CnTps1 ΔIDD (from UniProt Q6IVK9 1-208; Q6IVK9 301-669) (enzyme),4,–
"6xHis-CnTps1 (full-length Cryptococcus neoformans trehalose-6-phosphate synthase) (enzyme, UniProt Q6IVK9 1-670, looked up) MTTMSNDIPNSPTSTSFTGTFSPAATAANTAANARTSDAPSPTTSSSGPKLETSKEQRLIVVSNRLPVTISKDDNGEYHFKMSSGGLVSALSGCKKTMSFTWIGWPGKDIPMQDRETVNRRLLDEYNCYPVYLSDELADSHYNGSFSNSILWPLFHYHPGEMNFDAAHWLAYREANMRFADVVSSLVQAGDMVWVQDYHLMLLPMLLRSMITGESAQGEMVRQELGRVKEGVDDTVVKEVLKMGPGVAQAEDEGVEMLDDVEEEGGEMDVKSSPKRPHYARGMSTFQKQELVAKEKGKEGIRIGFFLHTPFPSSEIYRILPVRREILLGVLQCDLIGFHTYDYARHFLSSCTRILGLETQPNGIEFDGRYCQVGTFPIGIDPNQFIEGLQKESIVKRLRSLEARFEGVKVIIGVDRLDYIKGIPQKLQALETFLTQHPEWIGKVVLVQLAIPSRQDVEEYQDLRACVNELVGRINGRFGTVESVPIHYMHKSVPFEELTAMYALADACLVTSTRDGMNLVAYEYISSQAERHGSMILSEFAGAAQSFNGSLLINPWDVQSTADAINQALTLSPQQRKTNWQKLFNYVSKYTAEAWGVSFVNELNRLSGQRPSGPTGLAGRRKSGSLSRTSSKASIQRRKSSQSGIVTGLGAAAGAAVNWAQAQVQGGSQT",–,4
